The numbers were not newly measured in article PMC7948954, which cites them from elsewhere.

What is called Kd is the equilibrium constant for the complex coming apart.

The target of data set [1] is DREB2a (Arabidopsis thaliana) (UniProt O82132).
Data set [2] concerns the target ANAC013 (Arabidopsis thaliana) (UniProt F4IED2).
Data set [3] deals with Col10 (Arabidopsis thaliana) (UniProt Q9LUA9).
Data set [4] deals with STO (Arabidopsis thaliana) (UniProt Q96288).
Data set [5] addresses ANAC087 (Arabidopsis thaliana) (UniProt Q9FK44).
Sequence of UniProt Q9FK44 (Q9FK44 whole entry): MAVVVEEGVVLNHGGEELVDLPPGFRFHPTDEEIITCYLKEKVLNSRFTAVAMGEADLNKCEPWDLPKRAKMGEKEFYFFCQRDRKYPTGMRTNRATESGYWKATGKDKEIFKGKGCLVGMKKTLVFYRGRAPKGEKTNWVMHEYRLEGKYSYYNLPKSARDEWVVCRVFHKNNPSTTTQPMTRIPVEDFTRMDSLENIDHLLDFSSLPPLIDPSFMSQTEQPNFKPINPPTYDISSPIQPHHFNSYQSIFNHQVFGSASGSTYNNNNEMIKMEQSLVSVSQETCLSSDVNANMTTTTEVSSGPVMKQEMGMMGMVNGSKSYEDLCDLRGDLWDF
For data set [6], the target named is Mad1 (UniProt Q05195).
Sequence of UniProt Q05195 (Q05195 5-24): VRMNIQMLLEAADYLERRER
Data set [7] deals with Pf1 (UniProt Q96QT6).
Sequence of UniProt Q96QT6 (Q96QT6 202-241): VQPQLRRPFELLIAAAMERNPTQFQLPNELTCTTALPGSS
Data set [8] deals with SAP30 (UniProt O88574).
Sequence of UniProt O88574 (O88574 130-220): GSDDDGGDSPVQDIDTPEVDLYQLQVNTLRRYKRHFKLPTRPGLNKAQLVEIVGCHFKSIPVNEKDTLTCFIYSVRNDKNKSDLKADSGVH

Sequence of UniProt Q96288 (Q96288 whole entry): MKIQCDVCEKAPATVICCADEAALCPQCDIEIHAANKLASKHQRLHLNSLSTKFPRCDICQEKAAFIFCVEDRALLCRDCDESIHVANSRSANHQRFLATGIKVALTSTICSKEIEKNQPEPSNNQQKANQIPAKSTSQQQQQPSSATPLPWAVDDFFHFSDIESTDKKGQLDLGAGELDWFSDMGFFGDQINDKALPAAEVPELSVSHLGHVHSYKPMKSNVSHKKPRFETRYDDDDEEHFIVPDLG
Sequence of UniProt Q9LUA9 (Q9LUA9 whole entry): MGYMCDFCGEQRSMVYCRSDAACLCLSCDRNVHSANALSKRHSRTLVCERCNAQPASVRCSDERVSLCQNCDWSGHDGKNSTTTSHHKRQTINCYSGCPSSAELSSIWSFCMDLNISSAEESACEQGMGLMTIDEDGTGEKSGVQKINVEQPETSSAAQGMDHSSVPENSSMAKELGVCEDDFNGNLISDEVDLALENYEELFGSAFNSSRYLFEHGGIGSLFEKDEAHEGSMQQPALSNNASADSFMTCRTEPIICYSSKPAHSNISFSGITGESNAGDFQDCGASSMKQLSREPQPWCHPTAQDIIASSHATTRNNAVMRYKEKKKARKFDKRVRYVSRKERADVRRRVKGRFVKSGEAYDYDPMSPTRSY
Sequence of UniProt O82132 (O82132 whole entry): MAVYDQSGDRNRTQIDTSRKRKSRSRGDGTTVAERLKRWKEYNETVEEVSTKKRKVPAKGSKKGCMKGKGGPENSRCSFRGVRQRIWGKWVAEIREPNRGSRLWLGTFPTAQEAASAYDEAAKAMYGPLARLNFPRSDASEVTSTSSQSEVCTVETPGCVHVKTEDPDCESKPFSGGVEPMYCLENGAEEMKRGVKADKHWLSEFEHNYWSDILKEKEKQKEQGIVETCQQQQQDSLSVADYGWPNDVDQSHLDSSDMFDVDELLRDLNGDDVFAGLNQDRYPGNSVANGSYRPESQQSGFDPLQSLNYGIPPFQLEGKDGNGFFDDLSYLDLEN
Sequence of UniProt F4IED2 (F4IED2 whole entry): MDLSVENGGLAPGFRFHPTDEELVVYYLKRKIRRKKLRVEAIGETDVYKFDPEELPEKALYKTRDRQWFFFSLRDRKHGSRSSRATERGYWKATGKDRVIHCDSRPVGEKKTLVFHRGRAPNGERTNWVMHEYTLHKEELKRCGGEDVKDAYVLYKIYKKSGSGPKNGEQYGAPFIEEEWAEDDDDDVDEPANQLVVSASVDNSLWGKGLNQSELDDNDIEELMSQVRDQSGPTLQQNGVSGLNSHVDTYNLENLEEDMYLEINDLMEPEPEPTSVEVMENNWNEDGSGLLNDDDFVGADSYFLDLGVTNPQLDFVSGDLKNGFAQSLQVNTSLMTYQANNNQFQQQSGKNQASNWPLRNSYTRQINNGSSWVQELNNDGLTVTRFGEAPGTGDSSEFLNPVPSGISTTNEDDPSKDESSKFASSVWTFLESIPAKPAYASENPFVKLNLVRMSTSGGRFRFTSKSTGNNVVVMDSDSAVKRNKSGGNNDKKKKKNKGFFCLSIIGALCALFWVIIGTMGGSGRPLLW

In the case of RCD1 RST (from UniProt Q8RY59), the Kd was 16 nM in data set [1]; 9 nM in data set [2]; 418 nM in data set [3]; 90 nM in data set [4]; 1800 nM in data set [5].
Consider Sin3 PAH2 (from UniProt Q60520), for which the values for the Kd in data set [6] and in data set [7] were 50 nM and 2000 nM, respectively.
As for Sin3a PAH3 (from UniProt Q60520), the Kd in data set [8] is 9 nM.
